This note sets out measurements from publication PMC8346855 (Proceedings of the National Academy of Sciences of the …, 2021).

By EC50 is commonly meant the concentration needed to bring the measured effect to its halfway point. The term IC50 denotes the concentration that gives 50% inhibition. A word on the Ki: it is a measure of affinity in units of concentration, obtained from inhibition or displacement. In general, Kd refers to the constant that tells how readily two partners part at equilibrium.

What all share (conditions): both partners purified
Test [1] has as its target T1, thermostabilized turkey beta-1 adrenergic receptor (turkey).
T1 construct: turkey beta-1 adrenergic receptor, thermostabilized, truncated at the C terminus and intracellular loop 3; the states are told apart by the assay; also called β1AR; apo-β1AR
The experiment in a line: cross-linking + other: high-mass MALDI-MS; formation of β1AR•mGo with the titration of mGo, reading of EC50 (Graphpad); ligand state of β1AR not told for this curve.

The target of test [2] is T1, thermostabilized turkey beta-1 …. The test can be described thus: cross-linking + other: high-mass MALDI-MS; ligand-free (apo) GPCR, 5 µM, mixed with partner protein at various concentrations, 1 h at room temperature, BS(PEG)9 cross-linking, β-Gal as internal standard; 20 mM Hepes pH 7.5, 40 mM NaCl, 0.01% LMNG; Ka = 1/Kd.
For test [3] the target is unchanged. The test can be described thus: cross-linking + other: high-mass MALDI-MS; isoprenaline-bound β1AR (iso-β1AR), 5 µM, mixed with partner protein at various concentrations, 1 h at room temperature, BS(PEG)9 cross-linking, 0.6 µM β-Gal as internal standard; 20 mM Hepes pH 7.5, 40 mM NaCl, 0.01% LMNG; Ka = 1/Kd.
Test [4] shares this target. The test can be described thus: cross-linking + other: high-mass MALDI-MS; competition: Nb80 (0 to 13.3 µM) added to iso-β1AR (2.5 µM) and mGo (3.0 µM), 1 h at room temperature, BS(PEG)9 cross-linking, β-Gal as internal standard; read-out β1AR•mGo formation.
Test [5] addresses T2, thermostabilized turkey beta-1 adrenergic receptor (Meleagris gallopavo (turkey), stabilised).
T2 construct: beta-1 adrenergic receptor, turkey, thermostabilized, truncated at the C terminus and intracellular loop 3; Not treated with kinases; Small-molecule ligand states are told apart by the assay; also called β1AR; apo-β1AR; source: purified
The test can be described thus: cross-linking; competition: 2.5 μM β1AR, 3.0 μM mGo, increasing concentrations of Nb80; BS(PEG)9, high-mass MALDI-MS.

For test [6], the target named is T2, thermostabilized turkey beta-1 …. The test can be described thus: cross-linking; Kd by titrating the partner protein against isoprenaline-bound β1AR; 20 mM Hepes pH 7.5, 40 mM NaCl, 0.01% lauryl maltose neopentyl glycol; BS(PEG)9, high-mass MALDI-MS, normalised to β-galactosidase.

Changes are numbered by the printed parent chain.

T1 sequence (chain, as listed by the source): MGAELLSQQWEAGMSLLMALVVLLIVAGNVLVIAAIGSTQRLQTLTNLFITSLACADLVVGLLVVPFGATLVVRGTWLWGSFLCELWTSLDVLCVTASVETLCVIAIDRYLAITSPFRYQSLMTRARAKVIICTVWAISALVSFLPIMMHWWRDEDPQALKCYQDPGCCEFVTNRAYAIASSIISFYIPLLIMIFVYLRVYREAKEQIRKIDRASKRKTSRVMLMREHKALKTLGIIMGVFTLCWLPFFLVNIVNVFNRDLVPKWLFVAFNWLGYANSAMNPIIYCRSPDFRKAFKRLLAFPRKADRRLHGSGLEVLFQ
T2 sequence (P07700 other isoform, or with tags, fused parts or gaps, change not shown): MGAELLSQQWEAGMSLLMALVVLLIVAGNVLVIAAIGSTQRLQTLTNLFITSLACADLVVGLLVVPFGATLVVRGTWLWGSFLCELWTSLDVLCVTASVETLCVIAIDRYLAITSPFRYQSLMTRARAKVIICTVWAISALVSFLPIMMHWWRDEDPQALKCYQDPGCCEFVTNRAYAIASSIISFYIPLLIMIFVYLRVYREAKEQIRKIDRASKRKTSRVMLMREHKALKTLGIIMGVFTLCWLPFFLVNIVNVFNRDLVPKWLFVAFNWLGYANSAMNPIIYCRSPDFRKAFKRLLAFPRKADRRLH

B1: mini-Go (domain or fragment)
chain: GIEKNLKEDGISAAKDVKLLLLGADNSGKSTIVKQMKIIHGGSGGSGGTTGIVETHFTFKNLHFRLFDVGGQRSERKKWIHCFEDVTAIIFCVDLSDYNRMHESLMDFDSICNNKFFIDTSIILFLNKKDLFGEKIKKSPLTICFPEYTGPNTYEDAAAYIQAQFESKNRSPNKEIYCHMTCATDTNNAQVIFDAVTDIIIANNLRGCGLY
notes: thermostabilized truncated form of the Gαo subunit with the GTPase domain, lacking the α-helical domain; also called mGo; source: E. coli, purified (Ni Sepharose, TEV cleavage, reverse Ni-NTA, gel filtration); not shown: His tag, N-terminal, cleaved
Consider B1, for which the EC50 in test [1] came out at 1580 nM. For the same molecule, the Ka in test [2] and in test [3] was 4e+06 M⁻¹ in each case.

B2: nanobody 80 (VHH)
VHH: QVQLQESGGGLVQAGGSLRLSCAASGSIFSINTMGWYRQAPGKQRELVAAIHSGGSTNYANSVKGRFTISRDNAANTVYLQMNSLKPEDTAVYYCNVKDYGAVLYEYDYWGQGTQVTVSS
notes: nanobody 80; also called Nb80; NB80; not shown: His6, C-terminal, kept
In the case of B2, the half-inhibitory concentration (IC50) in test [4] was determined as 4610 nM. In addition, the Ka in test [3] amounted to 4.76e+06 M⁻¹.

B3: nanobody 80 (VHH)
VHH: B2 VHH
notes: also called Nb80; a Gs mimetic nanobody; source: purified
B3: the inhibition constant (Ki) in test [5] was determined as 1570 ± 240 nM. The Kd in test [6] amounted to 210 nM.

B4: mini-Gq (domain or fragment)
chain: GIEKQLQKDKQVYRATHRLLLLGADNSGKSTIVKQMRILHGGSGGSGGTSGIFETKFQVDKVNFHMFDVGGQRDERRKWIQCFNDVTAIIFVVDSSDYNRLQEALNDFKSIWNNRWLRTISVILFLNKQDLLAEKVLAGKSKIEDYFPEFARYTTPEDATPEPGEDPRVTRAKYFIRDEFLRISTASGDGRHYCYPHFTCAVDTENARRIFNDCKDIILQMNLREYNLV
notes: engineered from mGs (Dm5) by nine mutations on the α5-helix that correspond to residues of Gq; only residues of the α5-helix are those of Gq; also called mGq; source: E. coli, purified (Ni Sepharose, TEV cleavage, reverse Ni-NTA, gel filtration); not shown: His tag, N-terminal, cleaved
For B4, the Ka in test [3] was 810000 M⁻¹.

B5: mini-Gs (domain or fragment)
chain: B4 chain with K215R, L219Q, Q220R, N222H, E225Q, N227E, V229L
notes: thermostabilized truncated Gαs with the GTPase domain, lacking the α-helical domain; also called mGs; source: E. coli, purified (Ni Sepharose, TEV cleavage, reverse Ni-NTA, gel filtration); not shown: His tag, N-terminal, cleaved
Take B5: the Ka in test [3] stood at 2.86e+06 M⁻¹.

B6: mini-Gi (domain or fragment)
chain: B4 chain with C214V, K215T, L219I, Q220K, E225D, Y226C, N227G, V229F
notes: engineered from mGs (Dm5) by seven mutations on the α5-helix that correspond to residues of Gi; only residues of the α5-helix are those of Gi; also called mGi; source: E. coli, purified (Ni Sepharose, TEV cleavage, reverse Ni-NTA, gel filtration); not shown: His tag, N-terminal, cleaved
For the molecule B6, the Ka in test [3] was found to be 620000 M⁻¹.

B7: mini-Go truncated by its last five residues (domain or fragment)
chain: GIEKNLKEDGISAAKDVKLLLLGADNSGKSTIVKQMKIIHGGSGGSGGTTGIVETHFTFKNLHFRLFDVGGQRSERKKWIHCFEDVTAIIFCVDLSDYNRMHESLMDFDSICNNKFFIDTSIILFLNKKDLFGEKIKKSPLTICFPEYTGPNTYEDAAAYIQAQFESKNRSPNKEIYCHMTCATDTNNAQVIFDAVTDIIIANNLR
notes: mGo (Dm6) without its last five residues GCGLY; also called mGo_Δ5; source: E. coli, purified (same protocol as the mGα proteins); not shown: His tag, N-terminal, cleaved
Consider B7, for which the Ka in test [2] came out at 3.57e+06 M⁻¹; in test [3] it was 4.17e+06 M⁻¹.
